Measured values taken from publication PMC9813255 (2023).

Key:
Assay in all cases: SPR
[1] = target: T1, GST-Atxn1-33Q (UniProt P54253 1-815)
T1 chain: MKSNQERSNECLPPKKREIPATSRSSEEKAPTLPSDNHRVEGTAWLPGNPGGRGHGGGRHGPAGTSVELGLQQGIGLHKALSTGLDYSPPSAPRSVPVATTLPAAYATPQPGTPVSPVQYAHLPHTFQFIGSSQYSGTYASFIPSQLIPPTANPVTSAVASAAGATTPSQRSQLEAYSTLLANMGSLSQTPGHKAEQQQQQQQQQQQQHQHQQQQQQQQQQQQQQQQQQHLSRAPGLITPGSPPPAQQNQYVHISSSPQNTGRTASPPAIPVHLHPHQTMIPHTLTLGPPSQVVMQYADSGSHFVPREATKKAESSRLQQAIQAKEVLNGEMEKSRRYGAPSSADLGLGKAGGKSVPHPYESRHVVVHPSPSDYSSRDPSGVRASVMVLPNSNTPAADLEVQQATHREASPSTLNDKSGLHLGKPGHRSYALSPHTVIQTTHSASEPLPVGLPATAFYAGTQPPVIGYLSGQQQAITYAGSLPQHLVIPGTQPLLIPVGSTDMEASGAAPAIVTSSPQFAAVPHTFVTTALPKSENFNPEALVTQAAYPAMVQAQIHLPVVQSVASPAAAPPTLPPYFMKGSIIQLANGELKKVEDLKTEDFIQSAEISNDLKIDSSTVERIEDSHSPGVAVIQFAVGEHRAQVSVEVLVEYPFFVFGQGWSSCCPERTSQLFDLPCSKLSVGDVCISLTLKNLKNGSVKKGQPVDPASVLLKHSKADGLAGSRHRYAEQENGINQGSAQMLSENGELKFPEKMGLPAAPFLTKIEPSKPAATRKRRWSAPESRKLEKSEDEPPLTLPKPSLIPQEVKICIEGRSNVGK

[2] = target: T2, GST-Atxn1-86Q (UniProt P54253 1-815)
T2 chain: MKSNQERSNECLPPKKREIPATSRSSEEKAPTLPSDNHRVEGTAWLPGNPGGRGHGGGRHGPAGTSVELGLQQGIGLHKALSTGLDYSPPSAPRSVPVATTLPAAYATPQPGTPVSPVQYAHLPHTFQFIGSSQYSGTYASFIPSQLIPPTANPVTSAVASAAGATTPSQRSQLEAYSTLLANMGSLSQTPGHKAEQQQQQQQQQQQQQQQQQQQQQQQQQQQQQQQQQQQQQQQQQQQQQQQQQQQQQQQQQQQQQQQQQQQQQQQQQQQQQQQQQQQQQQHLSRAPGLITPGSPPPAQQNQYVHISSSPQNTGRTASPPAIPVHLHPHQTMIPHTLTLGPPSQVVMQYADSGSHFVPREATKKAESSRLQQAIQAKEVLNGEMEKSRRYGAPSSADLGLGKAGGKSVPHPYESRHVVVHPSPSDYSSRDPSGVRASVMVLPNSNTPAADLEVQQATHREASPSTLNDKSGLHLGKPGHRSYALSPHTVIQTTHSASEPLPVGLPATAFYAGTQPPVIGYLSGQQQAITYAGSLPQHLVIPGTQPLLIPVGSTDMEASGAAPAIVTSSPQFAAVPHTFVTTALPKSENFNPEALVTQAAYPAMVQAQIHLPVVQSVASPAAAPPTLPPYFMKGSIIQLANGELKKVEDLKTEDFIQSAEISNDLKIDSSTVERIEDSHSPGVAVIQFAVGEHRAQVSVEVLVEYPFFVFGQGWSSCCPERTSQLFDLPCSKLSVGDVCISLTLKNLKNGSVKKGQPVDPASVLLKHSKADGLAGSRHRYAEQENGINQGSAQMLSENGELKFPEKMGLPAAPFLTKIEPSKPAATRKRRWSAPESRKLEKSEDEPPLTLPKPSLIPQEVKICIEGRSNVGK

[3] = target: T3, GST-Htt-20Q
T3 chain: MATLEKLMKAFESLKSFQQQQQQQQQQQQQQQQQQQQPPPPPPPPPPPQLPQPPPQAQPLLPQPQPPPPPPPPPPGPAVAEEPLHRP

Binder | Kd [1] | Kd [2] | Kd [3]
PQBP5-Δ5 (protein, Delta number assigned from the order of the constructs in the methods (fifth: 1-481, lacking NUC153); tag omitted.) MQVSSLNEVKIYSLSCGKSLPEWLSDRKKRALQKKDVDVRRRIELIQDFEMPTVCTTIKVSKDGQYILATGTYKPRVRCYDTYQLSLKFERCLDSEVVTFEILSDDYSKIVFLHNDRYIEFHSQSGFYYKTRIPKFGRDFSYHYPSCDLYFVGASSEVYRLNLEQGRYLNPLQTDAAENNVCDINSVHGLFATGTIEGRVECWDPRTRNRVGLLDCALNSVTADSEINSLPTISALKFNGALTMAVGTTTGQVLLYDLRSDKPLLVKDHQYGLPIKSVHFQDSLDLILSADSRIVKMWNKNSGKIFTSLEPEHDLNDVCLYPNSGMLLTANETPKMGIYYIPVLGPAPRWCSFLDNLTEELEENPESTVYDDYKFVTKKDLENLGLTHLIGSPFLRAYMHGFFMDIRLYHKVKLMVNPFAYEEYRKDKIRQKIEETRAQRVQLKKLPKVNKELALKLIEEEEEKQKSTWKKKVKSLPNILT | 0.194 nM | 0.128 nM | –
PQBP5-Δ5 (protein, Delta number assigned from the order of the constructs in the methods (fifth: 1-481, lacking NUC153); tag omitted. Exon 1 ends at ...LHRP, which agrees with the printed Htt reverse primer. The entry carries 21Q (18-38); one Q is removed to give the 20Q of the assayed protein name. The plasmid is called 17Q, so the repeat count is ambiguous. GST omitted.) MQVSSLNEVKIYSLSCGKSLPEWLSDRKKRALQKKDVDVRRRIELIQDFEMPTVCTTIKVSKDGQYILATGTYKPRVRCYDTYQLSLKFERCLDSEVVTFEILSDDYSKIVFLHNDRYIEFHSQSGFYYKTRIPKFGRDFSYHYPSCDLYFVGASSEVYRLNLEQGRYLNPLQTDAAENNVCDINSVHGLFATGTIEGRVECWDPRTRNRVGLLDCALNSVTADSEINSLPTISALKFNGALTMAVGTTTGQVLLYDLRSDKPLLVKDHQYGLPIKSVHFQDSLDLILSADSRIVKMWNKNSGKIFTSLEPEHDLNDVCLYPNSGMLLTANETPKMGIYYIPVLGPAPRWCSFLDNLTEELEENPESTVYDDYKFVTKKDLENLGLTHLIGSPFLRAYMHGFFMDIRLYHKVKLMVNPFAYEEYRKDKIRQKIEETRAQRVQLKKLPKVNKELALKLIEEEEEKQKSTWKKKVKSLPNILT | – | – | 0.354 nM
PQBP5-Δ3 (protein, Delta number assigned from the order of the constructs in the methods; initiator Met from the primer and tag omitted.) IPVLGPAPRWCSFLDNLTEELEENPESTVYDDYKFVTKKDLENLGLTHLIGSPFLRAYMHGFFMDIRLYHKVKLMVNPFAYEEYRKDKIRQKIEETRAQRVQLKKLPKVNKELALKLIEEEEEKQKSTWKKKVKSLPNILTDDRFKVMFENPDFQVDEESEEFRLLNPLVSKISEKRKKKLRLLEQQELREKEEEEEPEGKPSDAESSESSDDEKAWVEEVRKQRRLLQQEEKVKRQERLKEDQQTVLKPQFYEIKAGEEFRSFKDSATKQKLMNKTLEDRLKIEAKNGTLSVSDTTVGSKQLTFTLKRSEQQKKQQEAEKLHRQERKRLRRSAGHLKSRHKRGRSFH | 255 nM | – | –
PQBP5-Δ3 (protein, Delta number assigned from the order of the constructs in the methods; initiator Met from the primer and tag omitted. Exon 1 ends at ...LHRP, which agrees with the printed Htt reverse primer. The entry carries 21Q (18-38); one Q is removed to give the 20Q of the assayed protein name. The plasmid is called 17Q, so the repeat count is ambiguous. GST omitted.) IPVLGPAPRWCSFLDNLTEELEENPESTVYDDYKFVTKKDLENLGLTHLIGSPFLRAYMHGFFMDIRLYHKVKLMVNPFAYEEYRKDKIRQKIEETRAQRVQLKKLPKVNKELALKLIEEEEEKQKSTWKKKVKSLPNILTDDRFKVMFENPDFQVDEESEEFRLLNPLVSKISEKRKKKLRLLEQQELREKEEEEEPEGKPSDAESSESSDDEKAWVEEVRKQRRLLQQEEKVKRQERLKEDQQTVLKPQFYEIKAGEEFRSFKDSATKQKLMNKTLEDRLKIEAKNGTLSVSDTTVGSKQLTFTLKRSEQQKKQQEAEKLHRQERKRLRRSAGHLKSRHKRGRSFH | – | – | 402 nM
full-length human PQBP5 (His-tag fusion protein) (natural protein, Exon 1 ends at ...LHRP, which agrees with the printed Htt reverse primer. The entry carries 21Q (18-38); one Q is removed to give the 20Q of the assayed protein name. The plasmid is called 17Q, so the repeat count is ambiguous. GST omitted.) MQVSSLNEVKIYSLSCGKSLPEWLSDRKKRALQKKDVDVRRRIELIQDFEMPTVCTTIKVSKDGQYILATGTYKPRVRCYDTYQLSLKFERCLDSEVVTFEILSDDYSKIVFLHNDRYIEFHSQSGFYYKTRIPKFGRDFSYHYPSCDLYFVGASSEVYRLNLEQGRYLNPLQTDAAENNVCDINSVHGLFATGTIEGRVECWDPRTRNRVGLLDCALNSVTADSEINSLPTISALKFNGALTMAVGTTTGQVLLYDLRSDKPLLVKDHQYGLPIKSVHFQDSLDLILSADSRIVKMWNKNSGKIFTSLEPEHDLNDVCLYPNSGMLLTANETPKMGIYYIPVLGPAPRWCSFLDNLTEELEENPESTVYDDYKFVTKKDLENLGLTHLIGSPFLRAYMHGFFMDIRLYHKVKLMVNPFAYEEYRKDKIRQKIEETRAQRVQLKKLPKVNKELALKLIEEEEEKQKSTWKKKVKSLPNILTDDRFKVMFENPDFQVDEESEEFRLLNPLVSKISEKRKKKLRLLEQQELREKEEEEEPEGKPSDAESSESSDDEKAWVEEVRKQRRLLQQEEKVKRQERLKEDQQTVLKPQFYEIKAGEEFRSFKDSATKQKLMNKTLEDRLKIEAKNGTLSVSDTTVGSKQLTFTLKRSEQQKKQQEAEKLHRQERKRLRRSAGHLKSRHKRGRSFH | – | – | 0.0308 nM
PQBP5-Δ1 (protein, Delta number assigned from the order of the constructs in the methods; initiator Met from the primer and tag omitted. Exon 1 ends at ...LHRP, which agrees with the printed Htt reverse primer. The entry carries 21Q (18-38); one Q is removed to give the 20Q of the assayed protein name. The plasmid is called 17Q, so the repeat count is ambiguous. GST omitted.) TYQLSLKFERCLDSEVVTFEILSDDYSKIVFLHNDRYIEFHSQSGFYYKTRIPKFGRDFSYHYPSCDLYFVGASSEVYRLNLEQGRYLNPLQTDAAENNVCDINSVHGLFATGTIEGRVECWDPRTRNRVGLLDCALNSVTADSEINSLPTISALKFNGALTMAVGTTTGQVLLYDLRSDKPLLVKDHQYGLPIKSVHFQDSLDLILSADSRIVKMWNKNSGKIFTSLEPEHDLNDVCLYPNSGMLLTANETPKMGIYYIPVLGPAPRWCSFLDNLTEELEENPESTVYDDYKFVTKKDLENLGLTHLIGSPFLRAYMHGFFMDIRLYHKVKLMVNPFAYEEYRKDKIRQKIEETRAQRVQLKKLPKVNKELALKLIEEEEEKQKSTWKKKVKSLPNILTDDRFKVMFENPDFQVDEESEEFRLLNPLVSKISEKRKKKLRLLEQQELREKEEEEEPEGKPSDAESSESSDDEKAWVEEVRKQRRLLQQEEKVKRQERLKEDQQTVLKPQFYEIKAGEEFRSFKDSATKQKLMNKTLEDRLKIEAKNGTLSVSDTTVGSKQLTFTLKRSEQQKKQQEAEKLHRQERKRLRRSAGHLKSRHKRGRSFH | – | – | 2.67 nM
PQBP5-Δ2 (protein, Delta number assigned from the order of the constructs in the methods; initiator Met from the primer and tag omitted.) PRTRNRVGLLDCALNSVTADSEINSLPTISALKFNGALTMAVGTTTGQVLLYDLRSDKPLLVKDHQYGLPIKSVHFQDSLDLILSADSRIVKMWNKNSGKIFTSLEPEHDLNDVCLYPNSGMLLTANETPKMGIYYIPVLGPAPRWCSFLDNLTEELEENPESTVYDDYKFVTKKDLENLGLTHLIGSPFLRAYMHGFFMDIRLYHKVKLMVNPFAYEEYRKDKIRQKIEETRAQRVQLKKLPKVNKELALKLIEEEEEKQKSTWKKKVKSLPNILTDDRFKVMFENPDFQVDEESEEFRLLNPLVSKISEKRKKKLRLLEQQELREKEEEEEPEGKPSDAESSESSDDEKAWVEEVRKQRRLLQQEEKVKRQERLKEDQQTVLKPQFYEIKAGEEFRSFKDSATKQKLMNKTLEDRLKIEAKNGTLSVSDTTVGSKQLTFTLKRSEQQKKQQEAEKLHRQERKRLRRSAGHLKSRHKRGRSFH | 830 nM | 183 nM | –
PQBP5-Δ2 (protein, Delta number assigned from the order of the constructs in the methods; initiator Met from the primer and tag omitted. Exon 1 ends at ...LHRP, which agrees with the printed Htt reverse primer. The entry carries 21Q (18-38); one Q is removed to give the 20Q of the assayed protein name. The plasmid is called 17Q, so the repeat count is ambiguous. GST omitted.) PRTRNRVGLLDCALNSVTADSEINSLPTISALKFNGALTMAVGTTTGQVLLYDLRSDKPLLVKDHQYGLPIKSVHFQDSLDLILSADSRIVKMWNKNSGKIFTSLEPEHDLNDVCLYPNSGMLLTANETPKMGIYYIPVLGPAPRWCSFLDNLTEELEENPESTVYDDYKFVTKKDLENLGLTHLIGSPFLRAYMHGFFMDIRLYHKVKLMVNPFAYEEYRKDKIRQKIEETRAQRVQLKKLPKVNKELALKLIEEEEEKQKSTWKKKVKSLPNILTDDRFKVMFENPDFQVDEESEEFRLLNPLVSKISEKRKKKLRLLEQQELREKEEEEEPEGKPSDAESSESSDDEKAWVEEVRKQRRLLQQEEKVKRQERLKEDQQTVLKPQFYEIKAGEEFRSFKDSATKQKLMNKTLEDRLKIEAKNGTLSVSDTTVGSKQLTFTLKRSEQQKKQQEAEKLHRQERKRLRRSAGHLKSRHKRGRSFH | – | – | 463 nM
